# Measured values reported in PMC8321654, “Heterogeneous nuclear ribonucleoprotein E1 binds polycytosine DNA and monitors genome integrity”.
# Target: GST-hnRNP E1 (UniProt Q15365 1-356)
# Assay: EMSA; 25 mM Tris-HCl pH 7.6, 1 mM EDTA, 2% glycerol, 10 mM beta-ME, 50 ug/ml BSA, with or without 1.5 ng denatured E. coli DNA; 20 fmol probe in 50 ul; RT 15 min; 8-10% PAGE in 1x TBE
# Conditions: protein: recombinant; tags: GST; label: 5'-32P
# Chain of GST-hnRNP E1 (Q15365 whole entry): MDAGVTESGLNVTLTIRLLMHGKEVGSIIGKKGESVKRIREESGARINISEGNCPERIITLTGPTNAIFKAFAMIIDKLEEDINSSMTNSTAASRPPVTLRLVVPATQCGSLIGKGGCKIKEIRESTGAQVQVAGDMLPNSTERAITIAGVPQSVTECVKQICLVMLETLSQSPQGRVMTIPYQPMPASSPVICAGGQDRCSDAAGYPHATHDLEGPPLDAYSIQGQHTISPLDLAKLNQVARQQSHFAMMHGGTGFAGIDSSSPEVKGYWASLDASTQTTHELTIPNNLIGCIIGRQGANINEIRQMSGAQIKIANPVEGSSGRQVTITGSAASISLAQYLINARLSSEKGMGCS
binder,measurement,value
AAUUGCUACCCAAUGCCUGGCCCAAGGGCAUUCCCAAAGCUUA (ssRNA) [BAT RNA consensus (43 nt)],binding signal,11 fold molar excess protein for 50% shift
